From the nanobody polyreactivity screen of Harvey et al. (2022)

Experiment: yeast display, Sf9 membrane polyspecificity reagent, FACS + sequencing; frameworks hold sequencing errors
In short: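 Sorting gates, low and high (top ~1%), were placed on anti-HA fluorescence to track expression and on streptavidin fluorescence to track reagent binding. A clone's polyreactivity label is taken from the gate it came out of. The reagent was 10% biotinylated, detergent-solubilized Sf9 membrane, applied for 1 hour at 4 °C to galactose-induced yeast display cells.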

Row | Sequence | polyreactivity (PSR sort gate)
1 | QVQRVESGGGLVQAGGILSLSCAASGSIFPWYAMGWYIQAPANERELVAAITISGGSTHYADSVKGRFTISRDNAKNSVYLEMNSLIPEDTAVYYCSTPRYPSYEYWGLGTQVTVSS | low polyreactivity
2 | QVQLVESGGGLVQAGGSLRLSCAASGRTFFRYAMGWYRQAPGKERELVAAISSSGGSSYYADSVKGRFTISRDNAKNTVYLQMNSLKPEDTAVYYCNRVYALTYYAKYGYDFWGQGTQVTVSS | high polyreactivity
3 | QVQLEESGGGLVQAGGSLRLSCAASGNTFYLYAMGWYRQAPGKERELVASITGGTRTNYADSVKGRFTISRDNAKNTVYLQMNSLKPEDTAVYYCAKTYPRTVGKYLSRGGYYYWGQGTQVTVSS | high polyreactivity
4 | QVQLVESGGGLVQAGGSLRLSCAASGFTFAKNAMGWYRQAPGKERELVATISRSGGSTYYADSVKGRFTLSRDNAKNTVYLQMNSLKREVNAVYYCNKKYNYLYDYWGQGTQVTVSS | high polyreactivity
5 | QVQLVESGGGLVQAGGSLRLSCAASGYIFWENAMGWYRQAPGKERELVAAITVSGGGTYYADSVKGRFTISRDNAKNSVYLQMNSLKPEVTAVYYCNVYDKAPAYDYWGQGTQVTVSS | low polyreactivity
6 | QVQLVESWGGLVHAGGSLRLSCAASGSTFYWYAMGWYIQAPGKEREFVARISSSGSSTFYADSVKGRFTISRDNAKNTVYLQMNSLKPEDTAVYYCAAETYRHYCFNYWGQGTQVTVSS | high polyreactivity
7 | QVQLQESGGGLVQAGGSLRLSCAASGNISVTGFMGWYRQAPGKERELVASIGIGGTTYYADSVKGRFSISRDNGKNTVYLQLNSLKPEDSAVYYCAARYLYYAYSYWGQGTQVTVSS | low polyreactivity
8 | QVQLVESGGGLVQAGGSLRLSCAASGRTFRPYAMGWYRQAPGKERELVAAITTTGRTYYADSVKGRFTISRDNAKNTVYLQMNSLKPEDTAVYDCNAVAYPSPHYWRYYYWGQGTQVTVSS | high polyreactivity
9 | QVQLVESGGGLVQAGGSLRLSFAASGLTFHYYAMGWYIQEPGKERELVAVISSGGSTYYAYSVKGRFTISRDNAKNTVYLQMNSLKPEDTAVYYCAALSSRTYKTGYYTYDYWGQGTQVTVSS | low polyreactivity
10 | QVQLVESGGGLVQAGGSLRLSCAASGFTLEYNAMGWYRQAPGKERELVAAIDGDGTTYYADSVKGRFTISRDNAKNTVYLQMNSLKPEDTAVYYCNTRTTPYYAQGITRIEYDYWGQGTQVTVSS | low polyreactivity
11 | QVQLVESGGGLVQAGGSLRLSCAASGITFGKNALGWYRQAPGKERELVATIRRSGGSTYADSVKGRFTISRDNAKNTVYLQMNSLKPEDTAVYYCNARSWNTYNYWGQGTQVTVSS | high polyreactivity
12 | QVQLVETGVGLVQAGGSLRLSSAASGSIFFTYTMGRYRQAPGKERELVATITYGGGGTYYADSVKGRFTISRDNAKNTVYLQMNSLKAEDTAVYYCAKDHATVLSRWYRGMDYWGQGTQVTVSS | low polyreactivity
13 | QVQLVESGGVLVQAGGSLRLSCAASEIIFTFYAMAWYRQAPGKEMELVAAITSSGGRTYYADSVKGRFTISRDNAKNTVYLQMNSLKPEDTAVYYCAARLPGYVRKYDYWGQGTQVTVSW | high polyreactivity
14 | QVQLVESGGGLVQAGGSLRLSCAASGRTFRGNAMGWYRQAPGKERELVAAIRWNGGSTYYADSVKGRFTISRDNAKNTVYLQMNSLKPEDTAVYYCAVLRLDYWGQGTQVTVSS | high polyreactivity
15 | QVQLVESGGGLVQAGGSLRLSCAASGSIFKVYAMGWYRQAPGKEREWVAAITWRGGSTYYADSVKGRFTISRDNAKNTVYLQMKSLKPEDTAVYYCGTEYCWKYDYWGQGTQVTVSS | low polyreactivity
16 | QVQLVESGGGLVQAGGSLRLTCAASGSTSYSNAMGWYRQAPGKERELVAAINRRGDSTYYADSVKGRFTISRDNAKNTVYLQMNSLKPEDTAVYYCNKVVRVYLGRFQYYSWGQGTQVTVSS | high polyreactivity
17 | QVQLVESGGGLVQAGGSLRLSCAASGFTFYRYAMGWYRQAPGKERELVAAITASGGSTYYADSVKGRFTISRDNAKNTVYLQMNSLKPEDTAVYYCAKGWVSYWRYKNEYWGQGTQVTVSS | high polyreactivity
18 | QVQLVESGGGLVQAGGSLRLSCAASGSIFGSYAMGWYRQAPGKERELVAGITRRSGSTYYADSVKGRFTISRDNAKNTVYLQMNSLKPEDTAVYYCAADTWFGMDYWGQGTQVTVSS | high polyreactivity
19 | QVQLVDSVGGLVQAGGSLSLSCAASGLIFASNAMGWYRQAPGKERELLATIRRGTSTNYADSVKGRFTISRDNAKNTVYLEMNSLKPEDTAVYYCAADGYTYKFDYWGQGTQVTVSS | low polyreactivity
20 | QVQLVESGGGLVQAGGSLRLSCAASGFIFVYGNVMGWYRQAPGKERDLVASITSDGGSTNYADSVKGRFTISRDNAKNTVYLQMNSLKPEDTAVYYCNADVPRGFGGEYDYWGQGTQVTVSS | low polyreactivity
21 | QVQLVESGGGLVQAGGSLRLSCAASGSTFWKYAMGWYRQAPGKERELVAAITRNGGRTFYADSVKGRFTISRDNAKNTVYLQMNSLKPEDTAVYYCNATAGHGYYYWGQGTQVTVSS | high polyreactivity
22 | QDQLVESGGGLVQAGGSLRLSCAASGNIIVEKAMGWYRQAPGTERELVAVSTSGTSTYADSVKGRFTISRDNAKNTVYLQMYSLKPEDTAVYYCNKRQVFVSTGEYEFDYWGQGTQVTVSS | low polyreactivity

Row | Sequence | polyreactivity (PSR sort gate)
23 | QVQIVESGGGLVQAGGSLRLSCAASGSTSVKYAMGWYRQAPGKERELVAAIRKRGDSTYYADSVKGRFTISRDYAKNTVYLQMNSLKPEDTAVYYFAAQYLRGRGYWGQGTQVTLSS | low polyreactivity
24 | QVQLVESGGGLVQAGRSLRLSCAASGNTLRPNGMGWYRPAPGKERELVAAISSGGSTYYADSVKGRFTISRDNAKNTVYLQMNSLKPEDTAVYYCAAEYWYDYWGQGTQVTVSS | low polyreactivity
25 | QVQLVESGGGLVQAGGSLRLSCASSGRIFGSYAMGWYRQAPGKERELVAGISKSGTSTYYADSVKGRFTISRDNAKNTVYLLMNSLKPEDTADYYCAKRFDSTKAKYYYWGQGTQGTVSS | high polyreactivity
26 | QVQLVESGGGLVQAGGSLRLSCAASGLIFWKYAMGWYRQAPGKEREFVAAITYGGGGTYYADSVKGRFTISRDNAKNTVYFQMNSLKPEDTAVYYWAKRRYYYKGRVSYRQYGYWGQGTQVTVSS | high polyreactivity
27 | QVQLEESGGGLVQAGGSLRLSSPASGFIFRYYAMGWYRQAPGKERELVAAISGRGGSTYYADSVKGRFTISRDNAKNTVYLQMNSLKPEDTAVYYCAVDVPSQGGDYWGQGTQVTVSS | high polyreactivity
28 | QVQLVESGGGLVQAGGSLRLTCAASGSTIVRNAMGWYRQAPGKEREFVAAIDWRGGSTSYADSVKGRFTISRDNAKNTVYLQMHSLKPADTAVYYCAAARRARELRSGQGSTYGNEYWGLGTQVTVSS | high polyreactivity
29 | QVQLVESGGGLVQAGGSLRLSCAASGIIFESYAMGWYRPAPGKERELVAAISWDGGSTYYADSVKGRFTISRDNAKNTVYLQMNSQKPEDTAVYYCAAESYGIYDGYDYWGQGTQVTVSS | high polyreactivity
30 | QVQLVESGGGLVQAGGSLRLSCAASGFTFNRNAMGWYRQAPGKERELVAAISRGGSTSYADSVKGRFTISRDNAKNTVYLQMNSLKPEDTAVYYCATYFRVYYSQYDYWGQGTQVTVTS | high polyreactivity
31 | QVQLVESGGGLVQAGGSLRLSCAASGSIFIANAMGWYRQAPGKERELVAAISSSDSSTYYADSVKGRFTISRDNAKNTVYLQMNSLKPEDTAVYYCAATYWYWYREGYYWGQGTQVTVSS | high polyreactivity
32 | QVQLVESGGGLVQARGSHRLSCAASGRTFVTNAMGWYRQAPGKERELVAAIRWSSDSTYYADSVKGRFTISRVIAKNTVYLQMNSLKPEYTAVYYCAARIPKQQGYGYWGQGTQVTVSS | high polyreactivity
33 | QVQLVESGGGLVQAGGSLRLSCAASGRIFAVNAMGWYRQAPGTERELVAAITNVASTKYADSVKGRFTISRDNAKNTVYLQMNSLKQEDTAVYYCNADLSQEDWKMDYWGQGTQVTVSS | low polyreactivity
34 | QVQLVESGGGLVQAGGSLRVSCAASGSTFWSYAMGGYRQAPGKARELVAGITQSGGSTYYADSVKGRFTISRDTAKHTLYLQMNSLQPEDTAVYDCAKDGRVSGDFDYWGQGTQGTVSS | low polyreactivity
35 | QVQLVESGGGLVQAGGTLRLSCAASGYTFGVYFMGWYRHAPGKERELVAAISGSTYYADSVKGRFTISRDNAKNTVYLQMNSLKQEDTAVYYCAAESYFFSPRTREKFDYWGQGTQVTVSS | low polyreactivity
36 | QVQLVESGGGLVQAGGSLRLSCAASGIIFPVYDMGWYRQAPGKERELVASITDSGGSTSYADSVKGRFTISRDNAKNTVYLQMNSLKPEDTAVYYCAVTDSDTNYYGYLSYDYWGQGTQVTVSS | low polyreactivity
37 | QVQHVESGGGLVQAGGSLRLSCAASGRTFKYNAMGWYRQAPGKEWELVAVIRYSGGTTYYADSVKGRFTISRDNAKNTVYLQMNSLKPEDTAVYYCAADSWSRSVNYYYWVQGTQVTVSS | low polyreactivity
38 | QDQLVESGGGLVQAGGSLRLSCAASGRTFTFNTMGWYRQAPGKERELVAAIVGDGTTNYADSVKGRFTISRDNAKNTVYLQMYSLKPEDTAVYYCAADFLYSFWYEPTFDYWGQGTQVTVSS | low polyreactivity
39 | QVQLVEAGGGLVQAGGSLRLCCAASGSTFVHYAMGWYRQAPGKERELVAAITTSGTGTFYADSVKGRFTISRENAKNNVYLQMNSLKPEETAVNYCAADIYPVWIYLLYVYWGQGTQVTVSS | low polyreactivity
40 | QVQLVESGGGLVQAGGSLRLSCAASGSTFGGYAMGWYRQAPGKERELVASISGGTRTNYADSVKGRFTISRDNAKNSVYLQMNSLKPEDTAVYYCAAEVGLPTWYTLPVDDYDYWGQGTQVTVSS | low polyreactivity
41 | QVQLVESGGGLVQAGGSLRLSCAASGRIFSSYAMGWYRQAPGKERELVAAIRYDAGSTYYADSVKGRFTISRDHAKNTVYLQMNSLKPEDTAVYYCAARIYFEQWSWYGYWGQGTQVTVSS | high polyreactivity
42 | QVQLVESGGGLVQAGGSLRLSSAASGLTFESYAIGWYRQAPWKERELVAAISFSCGSTNYADAVKGRFTISRDNAKNTVYLQLNSLKPEDTAVYYCAAEYGSPRGTGYDSWGQGTQVTVSS | high polyreactivity
43 | QVQHVESGGGLEQARGSLRLTCAASGRTFRYYAMAWYRQAPGKERELVASISDGGSTNYADSVNGRFTITRDNAKNTVYLQMNRLKPEDTAVYYCNSKCYVWYLYDEFGYWGQGTQVTVSS | low polyreactivity
